Biological target: protein fusion 1, SpyCatcher03 fused to supercharged green fluorescent protein, conjugated with polymer surfactant ([SC3-scGFP][S])
Assay: SDS-PAGE of covalent (isopeptide) SpyCatcher-SpyTag coupling; 10 uM of each protein mixed in 20 mM Tris-HCl, 700 mM NaCl, pH 7.5, 37 °C, monitored over 24 h, in triplicate; product estimated from the pixel intensity of the bands (GelAnalyzer)

| Substance | percent of coupling product formed after 15 s | yield of coupling product after 24 h |
| --- | --- | --- |
| protein fusion 2, fibronectin-binding protein CshA fused to mCherry with SpyTag03 on the C-terminus (CshA-mCh-ST3) | 40% | 80% |
| protein fusion 3, mCherry fused to SpyTag03 (mCh-ST3) | 60% | 60% |

Source: paper PMC10591475
